To fix the notation:
T1: EsCas13d, nuclease-dead (Eubacterium siraeum, UniProt B0MS50, R295A;H300A;R849A;H854A)
T1 sequence: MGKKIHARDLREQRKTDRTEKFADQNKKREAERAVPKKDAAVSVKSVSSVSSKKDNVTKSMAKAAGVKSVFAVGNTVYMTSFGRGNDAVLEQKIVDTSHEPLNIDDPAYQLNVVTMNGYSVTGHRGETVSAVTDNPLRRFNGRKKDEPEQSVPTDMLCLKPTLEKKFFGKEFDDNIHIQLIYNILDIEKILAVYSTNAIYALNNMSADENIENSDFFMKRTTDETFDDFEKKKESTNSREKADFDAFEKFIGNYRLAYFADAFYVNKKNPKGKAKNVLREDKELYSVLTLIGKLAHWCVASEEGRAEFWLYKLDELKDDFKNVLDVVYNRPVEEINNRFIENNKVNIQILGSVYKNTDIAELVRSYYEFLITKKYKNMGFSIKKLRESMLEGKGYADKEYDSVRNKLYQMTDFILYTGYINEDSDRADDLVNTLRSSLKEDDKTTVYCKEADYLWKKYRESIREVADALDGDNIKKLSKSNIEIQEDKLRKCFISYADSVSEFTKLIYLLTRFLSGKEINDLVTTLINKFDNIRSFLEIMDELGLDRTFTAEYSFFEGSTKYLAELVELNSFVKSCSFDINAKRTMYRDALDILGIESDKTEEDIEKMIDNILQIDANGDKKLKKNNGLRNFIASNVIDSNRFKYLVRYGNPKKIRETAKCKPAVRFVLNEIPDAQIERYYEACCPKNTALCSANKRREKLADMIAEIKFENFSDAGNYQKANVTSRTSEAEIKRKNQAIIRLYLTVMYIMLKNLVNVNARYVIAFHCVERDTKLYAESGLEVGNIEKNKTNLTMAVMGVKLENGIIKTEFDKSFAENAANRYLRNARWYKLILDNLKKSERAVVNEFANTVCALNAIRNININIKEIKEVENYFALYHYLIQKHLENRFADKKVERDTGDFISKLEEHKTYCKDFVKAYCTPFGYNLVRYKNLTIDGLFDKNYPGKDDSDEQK

B1: target 1 A1G,C2G (mixed)
RNA 1: CACCCGUGCAAAAAUGCAGGGGUCUAAAACUGAGCGGAUAACCUCUCUAUGG
RNA 2: GGGAAUGGAUCCACAUCUACGAAUUCGUACCAUAGAGAGGUUAUCCGCUGGCCGAGAUCGGAAGAGCACACGU
B2: target 1 A1C,C2G (mixed)
RNA 1: B1 RNA 1
RNA 2: B1 RNA 2 with G51C
B3: target 1 C2G (mixed)
RNA 1: B1 RNA 1
RNA 2: B1 RNA 2 with G51A
B4: target 1 insA 3' of 8,insA 3' of 8 (mixed)
RNA 1: B1 RNA 1
RNA 2: GGGAAUGGAUCCACAUCUACGAAUUCGUACCAUAGAGAGGUUAUAACCGCUCACCGAGAUCGGAAGAGCACACGU
B5: target 1 insA 3' of 7,insG 3' of 3 (mixed)
RNA 1: B1 RNA 1
RNA 2: B4 RNA 2 with A45C, C48G, G49C, C50U, U51G
B6: target 2 MT 5'PFS GAG 3'PFS ACA (mixed)
RNA 1: CACCCGUGCAAAAUUGCAGGGGUCUAAAACCUUCUCCAAAUUGUUUCAUCCU
RNA 2: GGGAAUGGAUCCACAUCUACGAAUUCGAGAGGAUGAAACAAUUUGGAGAAGACAAGAUCGGAAGAGCACACGU
B7: target 2 MT 5'PFS GGU 3'PFS CAU (mixed)
RNA 1: B6 RNA 1
RNA 2: B6 RNA 2 with A28G, G29U, A52C, C53A, A54U
B8: target 2 MT 5'PFS GAG 3'PFS ACC (mixed)
RNA 1: B6 RNA 1
RNA 2: B6 RNA 2 with A54C
B9: target 2 MT 5'PFS AUU 3'PFS UAU (mixed)
RNA 1: B6 RNA 1
RNA 2: B6 RNA 2 with G27A, A28U, G29U, A52U, C53A, A54U
B10: target 2 MT 5'PFS GUA 3'PFS UCA (mixed)
RNA 1: B6 RNA 1
RNA 2: B6 RNA 2 with A28U, G29A, A52U
B11: target 2 MT 5'PFS UUG 3'PFS CCG (mixed)
RNA 1: B6 RNA 1
RNA 2: B6 RNA 2 with G27U, A28U, A52C, A54G
B12: target 2 MT 5'PFS GCA 3'PFS UUA (mixed)
RNA 1: B6 RNA 1
RNA 2: B6 RNA 2 with A28C, G29A, A52U, C53U
B13: target 2 MT 5'PFS AUU 3'PFS AAU (mixed)
RNA 1: B6 RNA 1
RNA 2: B6 RNA 2 with G27A, A28U, G29U, C53A, A54U
B14: target 2 MT 5'PFS GGU 3'PFS CAG (mixed)
RNA 1: B6 RNA 1
RNA 2: B6 RNA 2 with A28G, G29U, A52C, C53A, A54G
B15: target 2 MT 5'PFS ACA 3'PFS ACU (mixed)
RNA 1: B6 RNA 1
RNA 2: B6 RNA 2 with G27A, A28C, G29A, A54U
B16: target 2 MT 5'PFS AGA 3'PFS UGU (mixed)
RNA 1: B6 RNA 1
RNA 2: B6 RNA 2 with G27A, A28G, G29A, A52U, C53G, A54U
B17: target 2 MT 5'PFS CUA 3'PFS UCA (mixed)
RNA 1: B6 RNA 1
RNA 2: B6 RNA 2 with G27C, A28U, G29A, A52U
B18: target 2 MT 5'PFS ACC 3'PFS UAA (mixed)
RNA 1: B6 RNA 1
RNA 2: B6 RNA 2 with G27A, A28C, G29C, A52U, C53A
B19: target 2 MT 5'PFS ACC 3'PFS UGC (mixed)
RNA 1: B6 RNA 1
RNA 2: B6 RNA 2 with G27A, A28C, G29C, A52U, C53G, A54C
B20: target 2 MT 5'PFS AUU 3'PFS AAA (mixed)
RNA 1: B6 RNA 1
RNA 2: B6 RNA 2 with G27A, A28U, G29U, C53A
B21: target 2 MT 5'PFS GUA 3'PFS UCC (mixed)
RNA 1: B6 RNA 1
RNA 2: B6 RNA 2 with A28U, G29A, A52U, A54C
B22: target 2 MT 5'PFS CGC 3'PFS AUA (mixed)
RNA 1: B6 RNA 1
RNA 2: B6 RNA 2 with G27C, A28G, G29C, C53U
B23: target 2 MT 5'PFS CUA 3'PFS UCC (mixed)
RNA 1: B6 RNA 1
RNA 2: B6 RNA 2 with G27C, A28U, G29A, A52U, A54C
B24: target 2 MT 5'PFS GGU 3'PFS CAC (mixed)
RNA 1: B6 RNA 1
RNA 2: B6 RNA 2 with A28G, G29U, A52C, C53A, A54C
B25: target 2 MT 5'PFS CGC 3'PFS AUG (mixed)
RNA 1: B6 RNA 1
RNA 2: B6 RNA 2 with G27C, A28G, G29C, C53U, A54G
B26: target 2 MT 5'PFS CGA 3'PFS AUU (mixed)
RNA 1: B6 RNA 1
RNA 2: B6 RNA 2 with G27C, A28G, G29A, C53U, A54U
B27: target 2 MT 5'PFS GAU 3'PFS UCU (mixed)
RNA 1: B6 RNA 1
RNA 2: B6 RNA 2 with G29U, A52U, A54U
B28: target 2 MT 5'PFS CGC 3'PFS AUU (mixed)
RNA 1: B6 RNA 1
RNA 2: B6 RNA 2 with G27C, A28G, G29C, C53U, A54U
B29: target 2 MT 5'PFS GGU 3'PFS CAA (mixed)
RNA 1: B6 RNA 1
RNA 2: B6 RNA 2 with A28G, G29U, A52C, C53A
B30: target 2 MT 5'PFS ACC 3'PFS UGA (mixed)
RNA 1: B6 RNA 1
RNA 2: B6 RNA 2 with G27A, A28C, G29C, A52U, C53G
B31: target 2 MT 5'PFS GAG 3'PFS ACU (mixed)
RNA 1: B6 RNA 1
RNA 2: B6 RNA 2 with A54U
B32: target 2 MT 5'PFS ACA 3'PFS ACA (mixed)
RNA 1: B6 RNA 1
RNA 2: B6 RNA 2 with G27A, A28C, G29A
B33: target 2 MT 5'PFS AUU 3'PFS AAG (mixed)
RNA 1: B6 RNA 1
RNA 2: B6 RNA 2 with G27A, A28U, G29U, C53A, A54G
B34: target 2 MT 5'PFS AUG 3'PFS UUU (mixed)
RNA 1: B6 RNA 1
RNA 2: B6 RNA 2 with G27A, A28U, A52U, C53U, A54U
B35: target 2 MT 5'PFS CGC 3'PFS AUC (mixed)
RNA 1: B6 RNA 1
RNA 2: B6 RNA 2 with G27C, A28G, G29C, C53U, A54C

This is an account of results in publication PMC10786891, “Massively parallel profiling of RNA-targeting CRISPR-Cas13d”.

Changes are numbered by the printed parent chain. Numbers in names are those of the source.

This data set deals with T1, EsCas13d, nuclease-dead. As to the kind of experiment: crRNA (strand 1, pre-loaded); Mg2+; 40 mM Tris-HCl pH 7.5, 150 mM NaCl, 6 mM MgCl2, 1 mM DTT, 0.1% Tween-20, 0.2 mg/ml BSA; 25 C; 10 min per concentration, then washed. The settings on record: tags: His6-TwinStrep-SUMO cleaved; N-terminal SNAP kept (SNAP-Surface 488); label: 3' end held by stalled T7 RNA polymerase.
Broadly, the Kd is the constant that tells how readily two partners part at equilibrium. Read a low Kd as higher affinity. Regarding B1, binding was put at a Kd of 5.54 ± 0.24 nM.

Turning to B2, binding was characterised by a dissociation constant (Kd) of 35 ± 4 nM.

In turn, B3 gave a Kd of 8.3 ± 0.6 nM. Molecule B4 registered a Kd of 32.2 ± 3.2 nM. This Kd lies about 3.9-fold higher than the previous one.

B5 gave a Kd of 4.65 ± 0.13 nM. In turn, B6 returned a Kd of 9.6 ± 1.6 nM. The value for B7 was 14.9 ± 2.3 nM; that for B8 was 14 ± 4 nM.

As for B9, the Kd is 5.6 ± 0.4 nM.

B10: the Kd is 10.3 ± 1.2 nM. Molecule B11 returned a dissociation constant (Kd) of 16.8 ± 1.4 nM. The value for B12 was 17 ± 4 nM.

In turn, B13 showed a Kd of 7.1 ± 1.4 nM. This Kd lies about 2.4-fold lower than the previous one. Regarding B14, the Kd is 13 ± 1 nM. Under B15 stands 6.3 ± 1.3 nM; under B16, 9.5 ± 1.2 nM; under B17, 2.17 ± 0.35 nM. The value for B18 was ~12 nM; that for B19 was 7.7 ± 2.2 nM. On to B20, for which the Kd worked out at 4.7 ± 0.5 nM. The value for B21 was 29 ± 5 nM. Under B22 stands 4 ± 0.5 nM; under B23, 3.4 ± 0.5 nM; under B24, 14.8 ± 2.2 nM.

Molecule B25 yielded a Kd of 5 ± 0.6 nM.

In the case of B26, the Kd is 10.6 ± 3.3 nM. The value for B27 was 56 ± 15 nM; that for B28 was 5 ± 0.8 nM. B29 showed a Kd of 8.6 ± 1.4 nM. Under B30 stands 8 ± 1.4 nM; under B31, 8.1 ± 0.7 nM; under B32, 7.2 ± 2.3 nM.

Regarding B33, binding was characterised by a dissociation constant (Kd) of 5.6 ± 0.6 nM. In turn, B34 displayed a Kd of 25 ± 6 nM. B35: binding was characterised by a dissociation constant (Kd) of 4.6 ± 0.6 nM.
